Drawing on article PMC4696747 (PLoS ONE, 2015), this text covers Km and Kd for two compounds.

The subject of one series is CC(=O)C(=O)O. The experiment in a line: purified protein. The conditions noted are these: NADH.
Series [1] concerns the target T1, rat lactate dehydrogenase A (rLDHA) (Rattus norvegicus, UniProt P04642).
T1 construct: gene Ldha; amino acids 1–332 of full-length wild type, untagged, biotinylated
The experiment in a line: SPR (BIAcore T200), steady-state affinity; kinetic fit gives Kd […]. It counts as binding. On the technique in general: In SPR one partner is held on a chip, and binding of the other changes the refractive index at the surface.

In general, Km refers to the concentration of substrate that gives half-maximal velocity. Broadly, the Kd is the equilibrium constant for the complex coming apart. Low readings indicate a tighter complex, high ones a looser complex.

In the case of “rat lactate dehydrogenase A (rLDHA) (Rattus norvegicus)”, in the series on CC(=O)C(=O)O, the Km worked out at 530 ± 80 µM. Consider `NC(=O)C1=CN([C@@H]2O[C@H](COP(=O)(O)OP(=O)(O)OC[C@H]3O[C@@H](n4cnc5c(N)ncnc54)[C@H](O)[C@@H]3O)[C@@H](O)[C@H]2O)C=CC1` [NADH], for which the dissociation constant Kd in series [1] came to 6.4 ± 0.3 µM.
